Measurements published in patent US20230190652A1, “COMPOSITION FOR THE TREATMENT OF COVID-19 AND TREATMENT METHOD” (priority 2020, published 2023).

System: COVID-19
Assay: Intubated hospitalized critically ill COVID-19 patients
Format: in vivo, human
Details: patients in a critical condition with cytokine storm

B1: lactoferrin (protein, UniProt P24627 20-708, looked up)
Lactotransferrin: APRKNVRWCTISQPEWFKCRRWQWRMKKLGAPSITCVRRAFALECIRAIAEKKADAVTLDGGMVFEAGRDPYKLRPVAAEIYGTKESPQTHYYAVAVVKKGSNFQLDQLQGRKSCHTGLGRSAGWIIPMGILRPYLSWTESLEPLQGAVAKFFSASCVPCIDRQAYPNLCQLCKGEGENQCACSSREPYFGYSGAFKCLQDGAGDVAFVKETTVFENLPEKADRDQYELLCLNNSRAPVDAFKECHLAQVPSHAVVARSVDGKEDLIWKLLSKAQEKFGKNKSRSFQLFGSPPGQRDLLFKDSALGFLRIPSKVDSALYLGSRYLTTLKNLRETAEEVKARYTRVVWCAVGPEEQKKCQQWSQQSGQNVTCATASTTDDCIVLVLKGEADALNLDGGYIYTAGKCGLVPVLAENRKSSKHSSLDCVLRPTEGYLAVAVVKKANEGLTWNSLKDKKSCHTAVDRTAGWNIPMGLIVNQTGSCAFDEFFSQSCAPGADPKSRLCALCAGDDQGLDKCVPNSKEKYYGYTGAFRCLAEDVGDVAFVKNDTVWENTNGESTADWAKNLNREDFRLLCLDGTRKPVTEAQSCHLAVAPNHAVVSRSDRAAHVKQVLLHQQALFGKNGKNCPDKFCLFKSETKNLLFNDNTECLAKLGGRPTYEEYLGTEYVTAIANLKKCSTSPLLEACAFLTR
notes: bovine LF used
IL-6, TNF alpha, ferritin and DD2 parameters: normalizing or decreasing
